Test results published in the supplement of paper PMC9112550, “Optimization of the antimicrobial peptide Bac7 by deep mutational scanning” (BMC Biology, 2022).

Tested on: Escherichia coli TOP10
Experiment: shrunken log2 fold change of peptide-encoding DNA abundance (4.5 h post-induction vs induction); higher = less antimicrobial activity (less host growth inhibition)
Details: time post-induction: 4.5 h; library: site-saturation at positions 5, 18, 19, 20
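Further: peptides expressed intracellularly from a pBAD plasmid library in pooled LB shake-flask culture, induced with 0.3% L-arabinose, DNA abundance read by NGS, three biological replicates, DESeq2 with apeglm shrinkage.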

Sequence	shrunken log2 fold change
RRIRSRPPRLPRPRPRPDRQPRP	-0.0702
RRIRLRPPRLPRPRPRPEYEPRP	0.0712
RRIRHRPPRLPRPRPRPMDQPRP	-0.0412
RRIRFRPPRLPRPRPRPQHLPRP	-1.22
RRIRRRPPRLPRPRPRPWFAPRP	0.204
RRIRQRPPRLPRPRPRPVMDPRP	-0.39
RRIRMRPPRLPRPRPRPAQCPRP	0.0203
RRIRSRPPRLPRPRPRPFCIPRP	-0.316
RRIRSRPPRLPRPRPRPKWNPRP	-0.154
RRIRYRPPRLPRPRPRPYFMPRP	-1.17
RRIRIRPPRLPRPRPRPWMKPRP	-0.305
RRIRYRPPRLPRPRPRPKLLPRP	-0.296
RRIRERPPRLPRPRPRPSPKPRP	0.0298
RRIRGRPPRLPRPRPRPPRKPRP	1.26
RRIRARPPRLPRPRPRPKTCPRP	0.161
RRIRCRPPRLPRPRPRPYSLPRP	-0.258
RRIRSRPPRLPRPRPRPVSRPRP	-0.0166
RRIRQRPPRLPRPRPRPPDNPRP	0.00496
RRIRLRPPRLPRPRPRPKKKPRP	0.141
RRIRIRPPRLPRPRPRPHEYPRP	0.0332
RRIRGRPPRLPRPRPRPDCEPRP	1.44
RRIRRRPPRLPRPRPRPSKYPRP	-0.483
RRIRKRPPRLPRPRPRPETVPRP	0.0854
RRIRQRPPRLPRPRPRPTEWPRP	0.446
RRIRGRPPRLPRPRPRPAALPRP	0.912

Sequence	shrunken log2 fold change
RRIRFRPPRLPRPRPRPQGCPRP	-0.13
RRIRGRPPRLPRPRPRPLTDPRP	0.284
RRIRERPPRLPRPRPRPPWLPRP	0.488
RRIRNRPPRLPRPRPRPWRQPRP	-0.0337
RRIRARPPRLPRPRPRPAIPPRP	-0.101
RRIRVRPPRLPRPRPRPMIRPRP	-0.147
RRIRWRPPRLPRPRPRPTSMPRP	-0.0665
RRIRKRPPRLPRPRPRPWHAPRP	-0.0686
RRIRIRPPRLPRPRPRPEFGPRP	0.129
RRIRGRPPRLPRPRPRPLICPRP	0.147
RRIRQRPPRLPRPRPRPDGKPRP	0.0269
RRIRVRPPRLPRPRPRPYRCPRP	-0.0108
RRIRDRPPRLPRPRPRPRKAPRP	-0.0143
RRIRDRPPRLPRPRPRPITEPRP	-0.0351
RRIRMRPPRLPRPRPRPPAVPRP	1.44
RRIRFRPPRLPRPRPRPNDTPRP	-0.179
RRIRPRPPRLPRPRPRPFDYPRP	-0.391
RRIRPRPPRLPRPRPRPWELPRP	0.0728
RRIRKRPPRLPRPRPRPDYSPRP	-0.168
RRIRFRPPRLPRPRPRPGCEPRP	0.187
RRIRDRPPRLPRPRPRPGQTPRP	0.032
RRIRFRPPRLPRPRPRPSPVPRP	-0.00168
RRIRGRPPRLPRPRPRPWHAPRP	0.281
RRIRLRPPRLPRPRPRPDPYPRP	0.0541
RRIRFRPPRLPRPRPRPFDAPRP	-0.0477

Sequence	shrunken log2 fold change
RRIRMRPPRLPRPRPRPNNHPRP	-0.178
RRIRERPPRLPRPRPRPEMFPRP	0.232
RRIRIRPPRLPRPRPRPGYFPRP	-0.904
RRIRRRPPRLPRPRPRPEHQPRP	0.25
RRIRNRPPRLPRPRPRPESSPRP	-0.00568
RRIRWRPPRLPRPRPRPEMWPRP	1.05
RRIRFRPPRLPRPRPRPQLNPRP	-0.53
RRIRPRPPRLPRPRPRPKGVPRP	0.000119
RRIRRRPPRLPRPRPRPCNMPRP	-0.152
RRIRWRPPRLPRPRPRPHHVPRP	-0.108
RRIRERPPRLPRPRPRPNVDPRP	-0.0153
RRIRNRPPRLPRPRPRPHWIPRP	-0.322
RRIRVRPPRLPRPRPRPNHIPRP	-0.651
RRIRVRPPRLPRPRPRPRFCPRP	-0.0488
RRIRCRPPRLPRPRPRPIEVPRP	-0.0598
RRIRWRPPRLPRPRPRPLPIPRP	-0.0952
RRIRTRPPRLPRPRPRPVCQPRP	2.97
RRIRCRPPRLPRPRPRPFLVPRP	-0.511
RRIRERPPRLPRPRPRPKKYPRP	-0.518
RRIRARPPRLPRPRPRPRNKPRP	0.271
RRIRARPPRLPRPRPRPVRHPRP	0.399
RRIRSRPPRLPRPRPRPIYLPRP	-0.336
RRIRMRPPRLPRPRPRPFLCPRP	-0.0722
RRIRSRPPRLPRPRPRPNTPPRP	-0.616
RRIRYRPPRLPRPRPRPDGPPRP	0.123

Sequence	shrunken log2 fold change
RRIRNRPPRLPRPRPRPRWDPRP	0.249
RRIRHRPPRLPRPRPRPEPMPRP	0.134
RRIRNRPPRLPRPRPRPFRKPRP	-0.0467
RRIRFRPPRLPRPRPRPEQPPRP	0.0505
RRIRRRPPRLPRPRPRPGSWPRP	0.189
RRIRGRPPRLPRPRPRPWHMPRP	-0.345
RRIRQRPPRLPRPRPRPHACPRP	-0.0973
RRIRRRPPRLPRPRPRPRIHPRP	-0.113
RRIRIRPPRLPRPRPRPTPWPRP	0.154
RRIRNRPPRLPRPRPRPDCRPRP	-0.119
RRIRWRPPRLPRPRPRPTAQPRP	0.894
RRIRMRPPRLPRPRPRPPKYPRP	-0.0762
RRIRFRPPRLPRPRPRPQRFPRP	0.0542
RRIRYRPPRLPRPRPRPQYDPRP	-0.0291
RRIRPRPPRLPRPRPRPKNGPRP	0.069
RRIRNRPPRLPRPRPRPRFNPRP	-0.766
RRIRLRPPRLPRPRPRPVTMPRP	-0.195
RRIRTRPPRLPRPRPRPYHYPRP	-0.185
RRIRERPPRLPRPRPRPMKEPRP	-0.0276
RRIRFRPPRLPRPRPRPKGHPRP	0.0587
RRIRERPPRLPRPRPRPFFRPRP	-0.112
RRIRGRPPRLPRPRPRPSGSPRP	0.128
RRIRCRPPRLPRPRPRPDSAPRP	-0.181
RRIRLRPPRLPRPRPRPNRGPRP	-0.00212
RRIRWRPPRLPRPRPRPHYMPRP	-0.825

Sequence	shrunken log2 fold change
RRIRYRPPRLPRPRPRPYGQPRP	-0.0112
RRIRVRPPRLPRPRPRPSFPPRP	-0.627
RRIRIRPPRLPRPRPRPDGFPRP	-0.00369
RRIRSRPPRLPRPRPRPWSEPRP	-0.196
RRIRDRPPRLPRPRPRPAPLPRP	0.445
RRIRLRPPRLPRPRPRPWSFPRP	0.018
RRIRPRPPRLPRPRPRPWMNPRP	-0.0141
RRIRARPPRLPRPRPRPFGMPRP	0.0196
RRIRFRPPRLPRPRPRPVVDPRP	-0.232
RRIRLRPPRLPRPRPRPWMTPRP	-0.0262
RRIRFRPPRLPRPRPRPVQSPRP	-0.16
RRIRERPPRLPRPRPRPKSTPRP	-0.42
RRIRGRPPRLPRPRPRPMYVPRP	-0.0802
RRIRQRPPRLPRPRPRPLQQPRP	-0.123
RRIRARPPRLPRPRPRPRCNPRP	0.197
RRIRMRPPRLPRPRPRPTCQPRP	-0.049
RRIRGRPPRLPRPRPRPDNQPRP	0.168
RRIRKRPPRLPRPRPRPHRHPRP	0.023
RRIRTRPPRLPRPRPRPERAPRP	0.55
RRIRYRPPRLPRPRPRPPPVPRP	0.61
RRIRSRPPRLPRPRPRPISCPRP	-0.0707
RRIRSRPPRLPRPRPRPTNNPRP	-0.455
RRIRQRPPRLPRPRPRPYQYPRP	-0.016
RRIRDRPPRLPRPRPRPAYNPRP	-0.764
RRIRERPPRLPRPRPRPQDQPRP	0.0272
